Results on seven molecules are retold here after US12318454.

Assay [1] has as its target human MT1-MMP hemopexin domain (residues Cys319-Gly511, N-terminally His6-tagged soluble protein) (human) (UniProt P50281). Put plainly: FP competition on human MT1-MMP hemopexin domain (footnote a: tracer 17-69-07-N040; footnote e: 17-69-07-N004).
Assay [2] has the same target. Briefly: FP competition on human MT1-MMP hemopexin domain (per paragraph 249; tracer not given).
Assay [3] has the same target. Put plainly: FP competition on human MT1-MMP hemopexin domain, tracer 17-69-07-N040 (footnote f).
Assay [4] deals with dog MT1-MMP hemopexin domain (dog). Put plainly: FP competition, dog MT1-MMP hemopexin domain.
Assay [5] concerns the target human MT1-MMP hemopexin domain (residues Cys319-Gly511, N-terminally His6-tagged soluble protein) (human) (UniProt P50281). Put plainly: FP competition, Human/cyno MT1-MMP hemopexin domain.
Assay [6] has the same target. Briefly: fluorescence polarisation with the fluoresceinated peptide. For orientation: Polarisation of emitted light reports the rotation of a fluorescent probe.

Numbered stars: 1 amine (or outer) side, 2 acyl side, 3 side chain; on linkers, the order of the positions; unused ones are H or OH. Bridge positions count the residues as written; N and C are the ends. Square brackets hold non-standard residues; d marks the D form. Ends that are not written are not given here. * marks the point of attachment. DM4 = maytansinoid, two hindering methyls on maytansine side, COc1cc2cc(c1Cl)N(C)C(=O)C[C@H](OC(=O)[C@H](C)N(C)C(=O)CCC(C)(C)S*)[C@]1(C)O[C@H]1[C@H](C)[C@@H]1C[C@@](O)(NC(=O)O1)[C@H](OC)/C=C/C=C(\C)C2; DM3 = maytansinoid, one hindering methyl on maytansine side, COc1cc2cc(c1Cl)N(C)C(=O)C[C@H](OC(=O)[C@H](C)N(C)C(=O)CCC(C)S*)[C@]1(C)O[C@H]1[C@H](C)[C@@H]1C[C@@](O)(NC(=O)O1)[C@H](OC)/C=C/C=C(\C)C2; disulfide linker, one methyl on bicycle side = not defined here; fluorescein = fluorescein label on the Lys side chain; unhindered disulfide linker = not defined here; 1Nal = N[C@@H](Cc1cccc2ccccc12)C(=O)O; TBMB = c1c(C[*:1])cc(C[*:3])cc1C[*:2]; disulfide linker = not defined here; Tle = CC(C)(C)[C@H](N)C(=O)O; DM1 = maytansinoid; βAla = NCCC(=O)O; Sar = CNCC(=O)O

B1: BT17BDC-17 (peptide)
peptide: {DM1-unhindered disulfide linker}-[βAla][Sar][Sar][Sar][Sar][Sar][Sar][Sar][Sar][Sar][Sar]AC[dA]NE[1Nal][dA]CEDFYD[Tle]C
modifications: linker 13-19-26 via TBMB; reading uncertain; also: exact linker structure not given here
Take B1: the Kd (usually the concentration at which binding is half-saturated) in assay [1] was found to be 0.7 nM.

B2: BT17BDC-18 (peptide)
peptide: {DM1-disulfide linker, one methyl on bicycle side}-[βAla][Sar][Sar][Sar][Sar][Sar][Sar][Sar][Sar][Sar][Sar]AC[dA]NE[1Nal][dA]CEDFYD[Tle]C
modifications: linker 13-19-26 via TBMB; reading uncertain; also: exact linker structure not given here
In assay [1], B2 registered a Kd of 0.99 nM.

B3: 17-69-07-N225 (peptide)
peptide: Ac-G[Sar][Sar][Sar][Sar][Sar][Sar][Sar][Sar][Sar][Sar]ACYNEFGCEDFYDIC
modifications: linker 13-19-26 via TBMB; not fully specified (C-terminus)
Take B3: the Kd in assay [2] worked out at 0.95 nM.

B4: BT17BDC-20 (peptide)
peptide: {DM3-disulfide linker, one methyl on bicycle side}-[βAla][Sar][Sar][Sar][Sar][Sar][Sar][Sar][Sar][Sar][Sar]AC[dA]NE[1Nal][dA]CEDFYD[Tle]C
modifications: linker 13-19-26 via TBMB; reading uncertain; also: exact linker structure not given here
In turn, B4 registered an equilibrium dissociation constant (Kd) in assay [3] of 2.95 nM.

B5: 17-69-07-N219 (peptide)
peptide: H-G[Sar][Sar][Sar][Sar][Sar][Sar][Sar][Sar][Sar][Sar]ACYNEFGCEDFYDIC
modifications: linker 13-19-26 via TBMB; not fully specified (C-terminus)
With B5, the Kd in assay [1] turned out to be 0.82 nM; in assay [2], 0.82 nM; in assay [4], 0.9 nM; in assay [5], 0.82 nM.

B6: BT17BDC-19 (peptide)
peptide: {DM4-disulfide linker}-[βAla][Sar][Sar][Sar][Sar][Sar][Sar][Sar][Sar][Sar][Sar]AC[dA]NE[1Nal][dA]CEDFYD[Tle]C
modifications: linker 13-19-26 via TBMB; reading uncertain; also: exact linker structure not given here
B6 showed a Kd in assay [1] of 0.5 nM. This lies in the sub-nanomolar range.

B7: 17-69-07-N258 (peptide)
peptide: fluorescein-[βAla][Sar][Sar][Sar][Sar][Sar][Sar][Sar][Sar][Sar][Sar]AC[dA]NE[1Nal][dA]CEDFYD[Tle]C
modifications: linker 13-19-26 via TBMB; not fully specified (C-terminus); printed as Fluorescein-(bAla)-Sar10-A-(17-69-07) D-Ala1 1Nal4 D-Ala5 tBuGlyl1
In assay [6], B7 displayed a Kd of 2.2 nM. This lies in the single-digit nanomolar range.
